This note sets out measurements from patent US20240002497A1 (Merck Sharp & Dohme, published 2024).

Changes are numbered by the printed parent chain. Numbers in names are those of the source.

To fix the notation:
B1: F010301556 (VHH)
VHH: EVQLVESGGGLVQAGGSLRLSCAASGRILRIGYMRWHRQGAGKQREFVARITGGSATGYADSVKGRFTISRDNAKNTVYLQMNNLNPEDTAVYYCEALVTASVRGGSIHSGTYWGRGTLVTVSS
notes: also called F0103387G05(D23A, D53G, D54G, D58G)
B2: F010301849 (VHH)
VHH: B1 VHH with L11V, A14P, G40A, A41P, G53D, G54D, N84S, N86R, V92L, R116Q
notes: also called F0103387G05(L11V, A14P, D23A, G40A, A41P, D58G, N82bS, N83R, V89L, R105Q)
B3: F010301563 (VHH)
VHH: B1 VHH with G53D, G54D
notes: also called F0103387G05(D23A, D58G)
B4: F010300316 (VHH)
VHH: EVQLVESGGGLVQPGGSLRLSCAASGSIFNINSMAWYRRAPGKQRELVASSTNGGSWNYADSVKGRFTISRDNAKRVYLQMNSLTPEDTAVYYCNALLQPSIYDISRTYWGQGTLVTVSS
notes: vs F0103275B05: T57W
B5: F010301461 (VHH)
VHH: B4 VHH with S33R, S50Y, S56D, W57T, N95R
notes: also called F0103275B05(S33R, S50Y, S56D, N93R)
B6: F010301459 (VHH)
VHH: B4 VHH with S27P, I28V, S33R, N53P, S56D, W57T, N95R
notes: vs F0103275B05: S27P, I28V, S33R, N53P, S56D, N93R
B7: F010301462 (VHH)
VHH: B4 VHH with S27P, I28V, S33R, S50Y, N53P, S56D, W57T, N95R
notes: vs F0103275B05: S27P, I28V, S33R, S50Y, N53P, S56D, N93R
B8: F010300468 (VHH)
VHH: B4 VHH with W57T, N95R
notes: vs F0103275B05: N93R; also called F0103275B05(N93R)+FLAG3-HIS6; F103275B05(N93R)
B9: F010301000 (VHH)
VHH: B4 VHH with S27P, I28V, S33R, S50Y, N53P, S56D, W57T, T108I
notes: vs F0103275B05: S27P, I28V, S33R, S50Y, N53P, S56D, T101I
B10: F010301460 (VHH)
VHH: B4 VHH with S27P, I28V, S33R, S50Y, N53P, W57T, N95R
notes: vs F0103275B05: S27P, I28V, S33R, S50Y, N53P, N93R
B11: F010300796 (VHH)
VHH: B4 VHH with S27P, I28V, S33R, S50Y, N53P, S56D, W57T
notes: vs F0103275B05: S27P, I28V, S33R, S50Y, N53P, S56D
B12: F010301350 (VHH)
VHH: B1 VHH with A23D, G53D, G54D, G58V
notes: vs 387G05: D58V
B13: F010301565 (VHH)
VHH: B1 VHH with A23D, G54D
notes: vs 387G05: D53G, D58G
B14: F010301566 (VHH)
VHH: B1 VHH with A23D, G53D
notes: vs 387G05: D54G, D58G
B15: F010301344 (VHH)
VHH: B1 VHH with A23D, G53D, G58D
notes: vs 387G05: D54G
B16: F010301563 (VHH)
VHH: B1 VHH with G53D, G54D
notes: also called F0103387G05(D23A, D58G); F0103301563
B17: F010301564 (VHH)
VHH: B1 VHH with A23D, G58D
notes: vs 387G05: D53G, D54G
B18: F010301558 (VHH)
VHH: B1 VHH with G54D
notes: vs 387G05: D23A, D53G, D58G
B19: F010301559 (VHH)
VHH: B1 VHH with G53D
notes: vs 387G05: D23A, D54G, D58G
B20: F010301562 (VHH)
VHH: B1 VHH with G53D, G58D
notes: vs 387G05: D23A, D54G
B21: F010301346 (VHH)
VHH: B1 VHH with A23D, G53D, G54D
notes: vs 387G05: D58G
B22: F010301560 (VHH)
VHH: B1 VHH with A23D
notes: vs 387G05: D53G, D54G, D58G
B23: F010301561 (VHH)
VHH: B1 VHH with G54D, G58D
notes: vs 387G05: D23A, D53G
B24: F010301557 (VHH)
VHH: B1 VHH with G58D
notes: vs 387G05: D23A, D53G, D54G
B25: F010301556 (VHH)
VHH: B1 VHH
notes: as for B1
B26: F010301367 (VHH)
VHH: B1 VHH with A23D, G54D, G58D
notes: vs 387G05: D53G
B27: F010301314 (VHH)
VHH: B1 VHH with G53D, G54D, G58D
notes: vs 387G05: D23A
B28: F010301372 (VHH)
VHH: B1 VHH with A23D, G53D, G54D, G58D, S107G
notes: vs 387G05: S100dG
B29: F010301445 (VHH)
VHH: B1 VHH with A23D, G53D, G54D, G58D, S107Y
notes: vs 387G05: S100dY
B30: F010301639 (VHH)
VHH: EVQLVESGGGVVQPGGSLRLSCAASGSIFNINSMAWYRQAPGKQRELVASSTNGGSTNYADSVKGRFTISRDNAKRTVYLQMNSLRPEDTALYYCNALLQPSIYDISRTYWGQGTLVTVSS
notes: also called F0103275B05(R76_V78insT)(L11V, R39Q, T83R, V89L)

The first assay addresses T1, huNav1.7α + β1 (human Nav1.7α co-expressed with Navβ1) (human, UniProt Q15858 1-1988; Q07699 19-218).
T1 construct: also called HEK293 human Nav1.7α + β1; HEKa/β1 Nav1.7α
Nature of the assay: binding FACS, HEKa/β1 cells.
In the case of B1, the EC50 was 1.4 nM.
The same measure, in the same setting: the same measure for B2: 1.8 nM; for B3: 1 nM.

The next assay concerns the target T2, rhNav1.7α+β1-β2-β3 (rhesus monkey α subunit with human β …).
T2 construct: P2A cleaves it into α, β1, β2, β3; also called rhNav1.7-beta1-beta2-beta3
Nature of the assay: binding FACS, CHO FlpIn cells.
Regarding B4, a half-maximal response (EC50) required 170 nM.
On the same count and under the same terms, the same measure for B5: 24 nM.
On the same count and under the same terms, the result for B6 reads 23 nM; that for B7, 23 nM; that for B8, 40 nM.
B9: the EC50 was found to be 40 nM.
Still for that read-out and setting: the result for B10 reads 32 nM.
On the same count and under the same terms, the result for B11 reads 44 nM.

Another assay concerns the target T3, huNav1.7α (human Nav1.7 alpha subunit, expressed without β subunits) (human, UniProt Q15858 1-1988).
T3 construct: also called HEK293 human Nav1.7α; HEKa Nav1.7α
Nature of the assay: binding FACS, HEKa cells.
For the molecule B1, the EC50 is 1.8 nM.
The molecule B2 displayed a Bmax of 100% and an EC50 of 3 nM.
Molecule B3 registered an EC50 of 1.5 nM.

A further assay addresses T4, huNav1.7α+β1 (human, UniProt Q15858 1-1988; Q07699 19-218).
T4 construct: also called huNav1.7-beta1; HEKa/β1
Nature of the assay: binding FACS, HEKa/β1 cells. The protocol:
(§1) Binding of the ISVDs to cell-expressed Nav1.7α was detected via murine anti-Flag (Sigma, catalog #F1804). Briefly, cells were resuspended in FACS buffer (PBS, 10% FBS, NaN₃) and transferred to a 96-well V-bottom plate at 1×10^5 cells/well. Purified FLAG3-tagged ISVD was diluted in FACS buffer and added to the cells for 30 minutes at 4° C. […] Prior to the read-out, the samples were resuspended in 1 μg/mL propidium iodide (Sigma, catalog #P4170) to exclude dead cells. Between each step, the cells were centrifuged for 5 minutes at 200 grams and washed with 100 μL/well FACS buffer.
With B12, the EC50 was 1.7 nM.
The same measure, in the same setting: the result for B13 reads 1 nM; that for B14, 1 nM; that for B15, 2.1 nM.
The same measure, in the same setting: the same measure for B16: 1 nM.
The same measure, in the same setting: the result for B17 reads 2.4 nM; that for B18, 0.93 nM; that for B19, 0.92 nM.
The molecule B20 registered an EC50 of 1.9 nM.
As for B21, the EC50 amounted to 1.6 nM.
On the same count and under the same terms, the result for B22 reads 1.1 nM; that for B23, 1.2 nM; that for B24, 2.1 nM.
Still for that read-out and setting: the same measure for B25: 1.4 nM.
On the same count and under the same terms, the same measure for B26: 1.9 nM; for B27: 1.8 nM.
Molecule B28 gave an EC50 of 2.3 nM.
The same measure, in the same setting: the result for B29 reads 2 nM.

The next assay concerns the target T5, huNav1.7α (human, UniProt Q15858 1-1988).
T5 construct: HEK cells expressing the α subunit alone; also called HEKa; HEK huNav1.7α
Nature of the assay: binding FACS, HEKa cells.
On to B5, for which a half-maximal response (EC50) required 28 nM.
Still for that read-out and setting: the result for B6 reads 22 nM; that for B7, 35 nM; that for B9, 8.5 nM.
As for B10, the EC50 was 15 nM.
In the case of B11, a half-maximal effect (EC50) was put at 5.8 nM.

Another assay deals with T6, huNav1.7α+β1-β2-β3 (human, UniProt Q15858 1-1988; Q07699 19-218; O60939 30-215; Q9NY72 23-215).
T6 construct: 5N11S variant; also called huNav1.7-beta1-beta2-beta3; huNav1.7α+Navβ1-Navβ2-Navβ3
Nature of the assay: binding FACS, CHO FlpIn cells. A digest of the protocol:
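Cells in FACS buffer (PBS, 10% FBS, NaN₃) were incubated with purified FLAG3-tagged ISVD for 30 minutes at 4° C. Bound ISVD was detected by flow cytometry with murine anti-Flag, and dead cells were excluded with 1 μg/mL propidium iodide.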
On to B12, for which the EC50 was determined as 3.5 nM.
Same read-out and setting: the same measure for B13: 2.1 nM; for B14: 2.2 nM; for B15: 4.2 nM.
Same read-out and setting: the same measure for B16: 1.9 nM.
B17 yielded an EC50 of 3.5 nM.
The same measure, in the same setting: the result for B18 reads 1.8 nM.
On the same count and under the same terms, the result for B19 reads 1.8 nM; that for B20, 2.5 nM.
The same measure, in the same setting: the result for B21 reads 3.4 nM; that for B22, 2.1 nM; that for B23, 2.5 nM.
For the molecule B24, the midpoint of the response, the EC50, lay at 3.8 nM.
For the molecule B25, the EC50 is 2.3 nM.
As to B26, a half-maximal response (EC50) required 4.2 nM.
Molecule B27 returned an EC50 of 3.5 nM.
B28 gave an EC50 of 4.5 nM.
Consider B29, for which the EC50 worked out at 4.6 nM.

A further assay has as its target T4, huNav1.7α+β1. Nature of the assay: binding FACS, HEKa/β1 cells. The source holds these as a separate data set.
Regarding B5, it took 21 nM to reach a half-maximal effect (EC50).
On the same count and under the same terms, the result for B6 reads 18 nM.
Same read-out and setting: the result for B7 reads 22 nM; that for B9, 60 nM; that for B10, 26 nM.
B11 registered an EC50 of 38 nM.

The next assay has as its target huNav1.7α + β1 on HEK cells (human, UniProt Q15858 1-1988; Q07699 19-218). Nature of the assay: binding FACS, HEK cells (HEKa/b1).
On to B30, for which the EC50 was 94 nM.

A further assay deals with T5, huNav1.7α. Nature of the assay: binding FACS, HEKa cells. This is another data set of the same source. The protocol:
as §1
The molecule B12 yielded an EC50 of 1.6 nM.
Regarding B13, the response was half-maximal at 1.4 nM (EC50).
In the case of B14, the response was half-maximal at 1.2 nM (EC50).
With B15, it took 1.3 nM to reach a half-maximal effect (EC50).
Still for that read-out and setting: the same measure for B16: 1.5 nM.
The same measure, in the same setting: the same measure for B17: 1.9 nM.
With B18, the EC50 amounted to 1.5 nM.
On the same count and under the same terms, the same measure for B19: 0.87 nM.
The same measure, in the same setting: the same measure for B20: 1.2 nM; for B21: 1.5 nM; for B22: 1.2 nM.
Still for that read-out and setting: the same measure for B23: 2.2 nM.
The molecule B24 displayed an EC50 of 2 nM.
On the same count and under the same terms, the result for B25 reads 1.8 nM.
Regarding B26, the concentration for a half-maximal effect (EC50) was determined as 2.2 nM.
With B27, a half-maximal effect (EC50) was put at 1.9 nM.
In turn, B28 displayed an EC50 of 2.5 nM.
Molecule B29 came in with a half-maximal effective concentration (EC50) of 2.3 nM.

The next assay has as its target rhNav1.7α (rhesus monkey, UniProt Q15858 1-1988 (human entry)). Nature of the assay: cell-based or functional assay.
B4: the “2-pulse IC50 [M], P1” value is 5e-06 M and the “2-pulse IC50 [M], P2” value came out at 4e-06 M.
Taken in the same sequence, the figures for B8 were 6e-06 M and 3e-06 M.

Another assay has as its target T5, huNav1.7α. Nature of the assay: cell-based or functional assay.
In the case of B4, the “2-pulse IC50 [M], P1” value was 2e-06 M and the “2-pulse IC50 [M], P2” value was 1e-06 M.
In the same order, the values of B8 are 5e-06 M and 4e-06 M.

As a reminder, the EC50 is the concentration that produces a half-maximal response.
